Laboratory results: patent EP4413993A1 (Dompe' Farmaceutici S.P.A., dated 2024)
“And” between values parts separate entries of the source, which are not always exact repeats. Identical values can stand only once.

Target: TrkB receptor on rat C6 glioma cells (rat, UniProt Q63604 32-821)
Assay: cell-based or functional assay

TrkB receptor on rat C6 glioma cells, sequence (Q63604 32-821): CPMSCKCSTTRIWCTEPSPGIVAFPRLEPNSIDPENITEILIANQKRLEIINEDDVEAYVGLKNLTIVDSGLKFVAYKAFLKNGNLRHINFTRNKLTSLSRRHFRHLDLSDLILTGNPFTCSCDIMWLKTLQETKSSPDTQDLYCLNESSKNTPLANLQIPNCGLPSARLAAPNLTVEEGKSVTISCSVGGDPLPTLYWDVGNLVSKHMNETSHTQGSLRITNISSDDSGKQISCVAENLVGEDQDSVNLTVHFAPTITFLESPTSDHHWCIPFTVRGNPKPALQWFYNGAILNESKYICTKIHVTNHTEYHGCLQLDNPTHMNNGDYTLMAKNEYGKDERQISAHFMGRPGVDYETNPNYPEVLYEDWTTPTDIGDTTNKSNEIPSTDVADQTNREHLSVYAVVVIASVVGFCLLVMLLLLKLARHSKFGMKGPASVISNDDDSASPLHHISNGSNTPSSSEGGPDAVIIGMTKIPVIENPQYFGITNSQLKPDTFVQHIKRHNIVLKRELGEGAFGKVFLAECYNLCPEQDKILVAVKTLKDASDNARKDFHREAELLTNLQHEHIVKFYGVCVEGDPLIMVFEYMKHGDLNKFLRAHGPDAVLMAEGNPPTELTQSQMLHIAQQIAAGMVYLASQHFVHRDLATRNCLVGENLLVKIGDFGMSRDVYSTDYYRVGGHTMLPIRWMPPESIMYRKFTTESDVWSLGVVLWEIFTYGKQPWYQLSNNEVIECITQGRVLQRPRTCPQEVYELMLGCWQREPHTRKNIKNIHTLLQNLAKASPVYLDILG

EC50, concentration of rhBDNF required to induce 50% proliferation of C6 cells (MTS assay, 48h): ~3 µg/mL and ~0.11 µM
B1: recombinant human brain-derived neurotrophic factor (BDNF) (ligand)
chain: HSDPARRGELSVCDSISEWVTAADKKTAVDMSGGTVTVLEKVPVSKGQLKQYFYETKCNPMGYTKEGCRGIDKRHWNSQCRTTQSYVRALTMDSKKRIGWRFIRIDTSCVCTLTIKRGR
